Experimental data reported in patent US20100168025A1 (TEXAS A AND M UNIVERSITY SYSTEM, published 2010).

Tests used:
[1] = biological target: T1, recombinant α5β1 integrin (immobilized, ELISA) (UniProt P08648 42-995; P05556 21-728); test: ELISA, DV on immobilized recombinant α5β1 integrin
T1 construct: also called a5b1 integrin

[2] = biological target: A5 domain (immobilized acceptor on the IAsys biosensor) (UniProt P08648); test: optical biosensor (IAsys), A5 immobilized, Kd = koff/kon
[3] = biological target: A5 domain (immobilized acceptor on the IAsys biosensor) (UniProt P08648); test: optical biosensor (IAsys), A5 immobilized, free DV 8.0×10^-8 to 4.0×10^-7 M, global fit

T1 sequence (P08648 42-995, chain 1 of 2): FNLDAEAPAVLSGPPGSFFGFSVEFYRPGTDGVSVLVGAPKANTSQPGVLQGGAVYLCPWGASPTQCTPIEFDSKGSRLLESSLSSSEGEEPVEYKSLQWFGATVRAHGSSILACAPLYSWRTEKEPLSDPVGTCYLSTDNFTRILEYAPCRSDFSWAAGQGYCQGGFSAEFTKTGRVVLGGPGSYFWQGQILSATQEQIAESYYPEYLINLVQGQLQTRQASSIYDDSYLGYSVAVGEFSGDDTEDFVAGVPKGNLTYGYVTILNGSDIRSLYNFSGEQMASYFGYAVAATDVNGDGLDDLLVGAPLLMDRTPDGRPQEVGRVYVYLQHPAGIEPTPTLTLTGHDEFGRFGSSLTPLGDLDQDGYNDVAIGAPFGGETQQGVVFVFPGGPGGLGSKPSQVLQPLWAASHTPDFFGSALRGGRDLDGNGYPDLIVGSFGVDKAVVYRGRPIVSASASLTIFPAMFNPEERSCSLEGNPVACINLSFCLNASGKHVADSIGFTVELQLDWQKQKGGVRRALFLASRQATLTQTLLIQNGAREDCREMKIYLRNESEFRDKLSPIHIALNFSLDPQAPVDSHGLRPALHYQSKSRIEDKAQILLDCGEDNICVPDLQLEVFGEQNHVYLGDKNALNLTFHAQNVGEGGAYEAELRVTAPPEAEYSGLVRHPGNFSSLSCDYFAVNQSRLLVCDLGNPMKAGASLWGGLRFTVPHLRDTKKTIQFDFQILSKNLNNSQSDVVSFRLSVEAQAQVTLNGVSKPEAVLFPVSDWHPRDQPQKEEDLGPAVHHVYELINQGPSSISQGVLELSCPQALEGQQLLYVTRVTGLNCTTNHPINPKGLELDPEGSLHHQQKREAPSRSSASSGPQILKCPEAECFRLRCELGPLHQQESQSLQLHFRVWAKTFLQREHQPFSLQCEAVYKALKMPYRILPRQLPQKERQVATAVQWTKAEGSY
T1 sequence (P05556 21-728, chain 2 of 2): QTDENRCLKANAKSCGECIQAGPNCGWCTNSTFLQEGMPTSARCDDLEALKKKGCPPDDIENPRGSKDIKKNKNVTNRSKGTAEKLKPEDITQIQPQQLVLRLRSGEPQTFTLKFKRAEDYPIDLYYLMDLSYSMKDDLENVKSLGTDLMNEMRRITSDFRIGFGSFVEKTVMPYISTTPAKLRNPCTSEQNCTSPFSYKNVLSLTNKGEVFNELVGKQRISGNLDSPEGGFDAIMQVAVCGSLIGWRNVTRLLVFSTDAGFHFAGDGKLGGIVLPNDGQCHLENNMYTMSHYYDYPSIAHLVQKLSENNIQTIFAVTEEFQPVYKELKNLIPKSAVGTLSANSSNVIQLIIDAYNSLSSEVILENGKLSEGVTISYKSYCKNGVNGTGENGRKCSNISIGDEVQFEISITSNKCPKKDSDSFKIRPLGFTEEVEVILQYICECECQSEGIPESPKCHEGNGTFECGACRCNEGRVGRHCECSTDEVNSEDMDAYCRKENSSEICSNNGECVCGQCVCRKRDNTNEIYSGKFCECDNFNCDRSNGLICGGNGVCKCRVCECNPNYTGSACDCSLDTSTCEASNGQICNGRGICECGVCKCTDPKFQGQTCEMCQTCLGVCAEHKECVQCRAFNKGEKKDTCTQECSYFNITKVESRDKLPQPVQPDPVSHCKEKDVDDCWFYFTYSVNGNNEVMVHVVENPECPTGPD

B1: perlecan Domain V (recombinant, C-terminal 6×His tag) (ligand)
chain: EIKITFRPDSADGMLLYNGQKRVPGSPTNLANRQPDFISFGLVGGRPEFRFDAGSGMATIRHPTPLALGHFHTVTLLRSLTQGSLIVGDLAPVNGTSQGKFQGLDLNEELYLGGYPDYGAIPKAGLSSGFIGCVRELRIQGEEIVFHDLNLTAHGISHCPTCRDRPCQNGGQCHDSESSSYVCVCPAGFTGSRCEHSQALHCHPEACGPDATCVNRPDGRGYTCRCHLGRSGLRCEEGVTVTTPSLSGAGSYLALPALTNTHHELRLDVEFKPLAPDGVLLFSGGKSGPVEDFVSLAMVGGHLEFRYELGSGLAVLRSAEPLALGRWHRVSAERLNKDGSLRVNGGRPVLRSSPGKSQGLNLHTLLYLGGVEPSVPLSPATNMSAHFRGCVGEVSVNGKRLDLTYSFLGSQGIGQCYDSSPCERQPCQHGATCMPAGEYEFQCLCRDGFKGDLCEHEENPCQLREPCLHGGTCQGTRCLCLPGFSGPRCQQGSGHGIAESDWHLEGSGGNDAPGQYGAYFHDDGFLAFPGHVFSRSLPEVPETIELEVRTSTASGLLLWQGVEVGEAGQGKDFISLGLQDGHLVFRYQLGSGEARLVSEDPINDGEWHRVTALREGRRGSIQVDGEELVSGRSPGPNVAVNAKGSVYIGGAPDVATLTGGRFSSGITGCVKNLVLHSARPGAPPPQPLDLQHRAQAGANTRPCPSHHHHHH
notes: domain: domain V; Secreted from transfected 293FT cells and purified on Ni beads; also called DV; endorepellin
Kd [1]: ~30 nM | Kd [2]: 160 nM | koff [3]: 0.72 s⁻¹ | kon [3]: 3.8e+06 M⁻¹ s⁻¹
